From US20140302035A1 (MERRIMACK PHARMACEUTICALS, published 2014)
Numbering of substitutions follows the chain as printed.

B1: Ab#10 (bispecific antibody, human IgG1, kappa)
heavy: QLQLQESGPGLVKPSETLSLTCTVSGGSISSSVYYWSWIRQPPGKGLEWIGVIYPSGNTYYSPSLKSRVTISVDTSKNQFSLKLSSVTAADTAVYYCARTIYDLFDIWGQGTMVTVSSASTKGPSVFPLAPSSKSTSGGTAALGCLVKDYFPEPVTVSWNSGALTSGVHTFPAVLQSSGLYSLSSVVTVPSSSLGTQTYICNVNHKPSNTKVDKKVEPKSCDKTHTCPSCPAPEFLGGPSVFLFPPKPKDTLMISRTPEVTCVVVDVSQEDPEVQFNWYVDGVEVHNAKTKPREEQFNSKYRVVSVLTVLHQDWLNGKEYKCKVSNKGLPSSIEKTISKAKGQPREPQVYTLPPSREEMTKNQVSLSCAVKGFYPSDIAVEWESNGQPENNYKTTPPVLDSDGSFFLVSKLTVDKSRWQQGNVFSCSVMHEALHNHYTQKSLSLSKSCDKTGGGGSGGGGSGGGGSGGGGSGGGGSGGGGSGGGGSGGGGSCPSCPAPEFLGGPSVFLFPPKPKDTLMISRTPEVTCVVVDVSQEDPEVQFNWYVDGVEVHNAKTKPREEQFNSDYRVVSVLTVLHQDWLNGKEYKCKVSNKGLPSSIEKTISKAKGQPREPQVYTLPPSREEMTKNQVSLWCLVKGFYPSDIAVEWESNGQPENNYKTTPPVLDSDGSFFLYSKLTVDKSRWQQGNVFSCSVMHEALHNHYTQKSLSLSGECGGGGSGGGGSQVQLQQSGGGLVKPGESVKISCAASGYTFTNYGMNWVKQAPGKGLKWMGWINTYTGESTYADDFKGRFTFSLETSASAAYLQINSLRPEDTAVYFCARFAIKGDYWGQGTTVTVSSASTGGGGSGGGGSGGGGSGGGGSGDIVMTQSPSSLSASVGDKATITCRSTKSLLHSDGITYLYWYLQKPGKAPKLLIYQLSNLASGVPDRFSSSGSGTEFTLTISSVQPEDEGTYYCAQNLEIPRTFGQGTKLEIK
light: DIQMTQSPSSVSASVGDRVTITCRASQGISSWLAWYQQKPGKAPKLLIYAASSLQSGVPSRFSGSGSGTDFTLTISSLQPEDFATYYCLQANSFPPTFGGGTKVEIKRTVAAPSVFIFPPSDEQLKSGTASVVCLLNNFYPREAKVQWKVDNALQSGNSQESVTEQDSKDSTYSLSSTLTLSKADYEKHKVYACEVTHQGLSSPVTKSFNRGEC
notes: Anti-c-Met Fab / tandem Fc / anti-EpCAM scFv TFcBA; also called Antibody #10
B2: Ab#11 (bispecific antibody, human IgG1, kappa)
heavy: QLQLQESGPGLVKPSETLSLTCTVSGGSISSSVYYWSWIRQPPGKGLEWIGVIYPSGNTYYSPSLKSRVTISVDTSKNQFSLKLSSVTAADTAVYYCARTIYDLFDIWGQGTMVTVSSASTKGPSVFPLAPSSKSTSGGTAALGCLVKDYFPEPVTVSWNSGALTSGVHTFPAVLQSSGLYSLSSVVTVPSSSLGTQTYICNVNHKPSNTKVDKKVEPKSCDKTHTCPSCPAPEFLGGPSVFLFPPKPKDTLMISRTPEVTCVVVDVSQEDPEVQFNWYVDGVEVHNAKTKPREEQFNSKYRVVSVLTVLHQDWLNGKEYKCKVSNKGLPSSIEKTISKAKGQPREPQVYTLPPSREEMTKNQVSLSCAVKGFYPSDIAVEWESNGQPENNYKTTPPVLDSDGSFFLVSKLTVDKSRWQQGNVFSCSVMHEALHNHYTQKSLSLSKSCDKTGGGGSGGGGSGGGGSGGGGSGGGGSGGGGSGGGGSGGGGSCPSCPAPEFLGGPSVFLFPPKPKDTLMISRTPEVTCVVVDVSQEDPEVQFNWYVDGVEVHNAKTKPREEQFNSDYRVVSVLTVLHQDWLNGKEYKCKVSNKGLPSSIEKTISKAKGQPREPQVYTLPPSREEMTKNQVSLWCLVKGFYPSDIAVEWESNGQPENNYKTTPPVLDSDGSFFLYSKLTVDKSRWQQGNVFSCSVMHEALHNHYTQKSLSLSGECGGGGSGGGGSDIVMTQSPSSLSASVGDKATITCRSTKSLLHSNGITYLYWYLQKPGKAPKLLIYQMSNLASGVPDRFSSSGSGTEFTLTISSVQPEDEGTYYCAQNLEIPRTFGQGTKLEIKRTGGGGSGGGGSGGGGSGGGGSGQVQLQQSGGGLVKPGESVKISCAASGYTFTNYGMNWVKQAPGKGLKWMGWINTYTGESTYADDFKGRFTFSLETSASAAYLQINSLRPEDTAVYFCARFAIKGDYWGQGTTVTVSS
light: B1 light
notes: Anti-c-Met Fab / tandem Fc / anti-EpCAM scFv TFcBA; also called Antibody #11
B3: Ab#12 (bispecific antibody)
heavy: B2 heavy with N756D, M779L
light: B1 light
notes: Anti-c-Met Fab / tandem Fc / anti-EpCAM scFv TFcBA; also called Antibody #12
B4: Onartuzumab-23E (antibody)
heavy: EVQLVESGGGLVQPGGSLRLSCAASGYTFTSYWLHWVRQAPGKGLEWVGMIDPSNSDTRFNPNFKDRFTISADTSKNTAYLQMNSLRAEDTAVYYCATYRSYVTPLDYWGQGTLVTVSSASTKGPSVFPLAPSSKSTSGGTAALGCLVKDYFPEPVTVSWNSGALTSGVHTFPAVLQSSGLYSLSSVVTVPSSSLGTQTYICNVNHKPSNTKVDKKVEPKSCDKTHTCPPCPAPELLGGPSVFLFPPKPKDTLMISRTPEVTCVVVDVSHEDPEVKFNWYVDGVEVHNAKTKPREEQYQSTYRVVSVLTVLHQDWLNGKEYKCKVSNKALPAPIEKTISKAKGQPREPQVYTLPPSREEMTKNQVSLSCAVKGFYPSDIAVEWESNGQPENNYKTTPPVLDSDGSFFLVSKLTVDKSRWQQGNVFSCSVMHEALHNHYTQKSLSLSKSCDKTGGGGSGGGGSGGGGSGGGGSGGGGSGGGGSGGGGSGGGGSCPPCPAPELLGGPSVFLFPPKPKDTLMISRTPEVTCVVVDVSHEDPEVKFNWYVDGVEVHNAKTKPREEQYQSTYRVVSVLTVLHQDWLNGKEYKCKVSNKALPAPIEKTISKAKGQPREPQVYTLPPSREEMTKNQVSLWCLVKGFYPSDIAVEWESNGQPENNYKTTPPVLDSDGSFFLYSKLTVDKSRWQQGNVFSCSVMHEALHNHYTQKSLSLSGEC
light: DIQMTQSPSSLSASVGDRVTITCKSSQSLLYTSSQKNYLAWYQQKPGKAPKLLIYWASTRESGVPSRFSGSGSGTDFTLTISSLQPEDFATYYCQQYYAYPWTFGQGTKVEIKRTVAAPSVFIFPPSDEQLKSGTASVVCLLNNFYPREAKVQWKVDNALQSGNSQESVTEQDSKDSTYSLSSTLTLSKADYEKHKVYACEVTHQGLSSPVTKSFNRGEC
notes: Monovalent tandem Fc antibody: onartuzumab anti-c-Met Fab on IgG1 TFc 23E
B5: Onartuzumab-23 (antibody)
heavy: EVQLVESGGGLVQPGGSLRLSCAASGYTFTSYWLHWVRQAPGKGLEWVGMIDPSNSDTRFNPNFKDRFTISADTSKNTAYLQMNSLRAEDTAVYYCATYRSYVTPLDYWGQGTLVTVSSASTKGPSVFPLAPSSKSTSGGTAALGCLVKDYFPEPVTVSWNSGALTSGVHTFPAVLQSSGLYSLSSVVTVPSSSLGTQTYICNVNHKPSNTKVDKKVEPKSCDKTHTCPPCPAPELLGGPSVFLFPPKPKDTLMISRTPEVTCVVVDVSHEDPEVKFNWYVDGVEVHNAKTKPREEQYQSTYRVVSVLTVLHQDWLNGKEYKCKVSNKALPAPIEKTISKAKGQPREPQVYTLPPSREEMTKNQVSLSCAVKGFYPSDIAVEWESNGQPENNYKTTPPVLDSDGSFFLVSKLTVDKSRWQQGNVFSCSVMHEALHNHYTQKSLSLSPGKGGGGSGGGGSGGGGSGGGGSGGGGSGGGGSGGGGSGGGGSCPPCPAPELLGGPSVFLFPPKPKDTLMISRTPEVTCVVVDVSHEDPEVKFNWYVDGVEVHNAKTKPREEQYQSTYRVVSVLTVLHQDWLNGKEYKCKVSNKALPAPIEKTISKAKGQPREPQVYTLPPSREEMTKNQVSLWCLVKGFYPSDIAVEWESNGQPENNYKTTPPVLDSDGSFFLYSKLTVDKSRWQQGNVFSCSVMHEALHNHYTQKSLSLSPGK
light: B4 light
notes: Monovalent tandem Fc antibody: onartuzumab anti-c-Met Fab on IgG1 TFc 23
B6: Onartuzumab-39EGY4 (antibody)
heavy: EVQLVESGGGLVQPGGSLRLSCAASGYTFTSYWLHWVRQAPGKGLEWVGMIDPSNSDTRFNPNFKDRFTISADTSKNTAYLQMNSLRAEDTAVYYCATYRSYVTPLDYWGQGTLVTVSSASTKGPSVFPLAPSSKSTSGGTAALGCLVKDYFPEPVTVSWNSGALTSGVHTFPAVLQSSGLYSLSSVVTVPSSSLGTQTYICNVNHKPSNTKVDKKVEPKSCDKTHTCPSCPAPEFLGGPSVFLFPPKPKDTLMISRTPEVTCVVVDVSQEDPEVQFNWYVDGVEVHNAKTKPREEQFNSKYRVVSVLTVLHQDWLNGKEYKCKVSNKGLPSSIEKTISKAKGQPREPQVYTLPPSREEMTKNQVSLSCAVKGFYPSDIAVEWESNGQPENNYKTTPPVLDSDGSFFLVSKLTVDKSRWQQGNVFSCSVMHEALHNHYTQKSLSLSKSCDKTGGGGSGGGGSGGGGSGGGGSGGGGSGGGGSGGGGSGGGGSCPSCPAPEFLGGPSVFLFPPKPKDTLMISRTPEVTCVVVDVSQEDPEVQFNWYVDGVEVHNAKTKPREEQFNSDYRVVSVLTVLHQDWLNGKEYKCKVSNKGLPSSIEKTISKAKGQPREPQVYTLPPSREEMTKNQVSLWCLVKGFYPSDIAVEWESNGQPENNYKTTPPVLDSDGSFFLYSKLTVDKSRWQQGNVFSCSVMHEALHNHYTQKSLSLSGEC
light: B4 light
notes: Monovalent tandem Fc antibody: onartuzumab anti-c-Met Fab on IgG1/IgG4 hybrid TFc 39E glycoform 4
B7: Onartuzumab-39 (antibody)
heavy: EVQLVESGGGLVQPGGSLRLSCAASGYTFTSYWLHWVRQAPGKGLEWVGMIDPSNSDTRFNPNFKDRFTISADTSKNTAYLQMNSLRAEDTAVYYCATYRSYVTPLDYWGQGTLVTVSSASTKGPSVFPLAPSSKSTSGGTAALGCLVKDYFPEPVTVSWNSGALTSGVHTFPAVLQSSGLYSLSSVVTVPSSSLGTQTYICNVNHKPSNTKVDKKVEPKSCDKTHTCPSCPAPEFLGGPSVFLFPPKPKDTLMISRTPEVTCVVVDVSQEDPEVQFNWYVDGVEVHNAKTKPREEQFNSKYRVVSVLTVLHQDWLNGKEYKCKVSNKGLPSSIEKTISKAKGQPREPQVYTLPPSREEMTKNQVSLSCAVKGFYPSDIAVEWESNGQPENNYKTTPPVLDSDGSFFLVSKLTVDKSRWQQGNVFSCSVMHEALHNHYTQKSLSLSPGKGGGGSGGGGSGGGGSGGGGSGGGGSGGGGSGGGGSGGGGSCPSCPAPEFLGGPSVFLFPPKPKDTLMISRTPEVTCVVVDVSQEDPEVQFNWYVDGVEVHNAKTKPREEQFNSKYRVVSVLTVLHQDWLNGKEYKCKVSNKGLPSSIEKTISKAKGQPREPQVYTLPPSREEMTKNQVSLWCLVKGFYPSDIAVEWESNGQPENNYKTTPPVLDSDGSFFLYSKLTVDKSRWQQGNVFSCSVMHEALHNHYTQKSLSLSPGK
light: B4 light
notes: Monovalent tandem Fc antibody: onartuzumab anti-c-Met Fab on IgG1/IgG4 hybrid TFc 39

What was measured:
[1] = biological target: T1, Human EpCAM-Fc-his tagged (human); assay: BLI (ForteBio Octet), antibody loaded on Protein A tips, recombinant polyhistidine-tagged EpCAM-Fc in solution, 1:1 model
T1 construct: also called Recombinant polyhistidine-tagged EpCAM-Fc; recombinant EpCAM
Protocol: For Octet analysis, all reagents and samples are brought to room temperature. Protein A sensor tips (ForteBio, #18-5010) are hydrated for 10 minutes in 1×PBS. Assay steps include: 1-2 minutes of equilibration in 1×PBS, 4 minutes of antibody loading (concentration of 50 μg/ml in 1×PBS), 1-2 minutes of baseline stabilization, 4 minutes of antibody:antigen association, and 4 minutes of antibody:antigen dissociation. 1×PBS is used as the matrix throughout. Data are analyzed with Octet Data Analysis software, processed, and fit to a 1:1 binding model to determine kinetic parameters (Kd, kₒₙ and kdiss).
Table A-2 describes approximate EpCAM binding affinity and dissociation rate as determined for Ab#1, Ab#2, Ab#3, Ab#4, Ab#5, Ab#6, Ab#7, Ab#8, Ab#9, Ab#10, Ab#11, Ab#12, and Ab#13.

[2] = biological target: T2, cMet-his (Homo sapiens (Human), UniProt P08581 25-933); assay: BLI (ForteBio Octet), antibody loaded on Protein A tips, his tagged cMET in solution, 1:1 model
T2 construct: also called his tagged cMET; Recombinant polyhistidine-tagged c-Met
Protocol: Protocol: All reagents are equilibrated and samples are brought to room temperature. Protein A sensor tips (Fortebio, #18-5010) are hydrated for 10 min in 1×PBS. Kinetic assays are run using the Octet software and procedure per manufacturer's instruction. Assay steps typically include: 1-2 min of equilibration in 1×PBS, 4 min of antibody loading (conc: 50 μg/mL in 1×PBS), 1-2 min of baseline stabilization, 4 min of antibody:antigen association, and 4 min of antibody:antigen dissociation. 1×PBS is used as the matrix throughout. Data are analyzed with Octet Data Analysis software, processed, and fit to the curve using 1:1 binding model to determine kinetic parameters (Kₐ, Kₒₙ and Koff)

T1 sequence (chain, as listed by the source): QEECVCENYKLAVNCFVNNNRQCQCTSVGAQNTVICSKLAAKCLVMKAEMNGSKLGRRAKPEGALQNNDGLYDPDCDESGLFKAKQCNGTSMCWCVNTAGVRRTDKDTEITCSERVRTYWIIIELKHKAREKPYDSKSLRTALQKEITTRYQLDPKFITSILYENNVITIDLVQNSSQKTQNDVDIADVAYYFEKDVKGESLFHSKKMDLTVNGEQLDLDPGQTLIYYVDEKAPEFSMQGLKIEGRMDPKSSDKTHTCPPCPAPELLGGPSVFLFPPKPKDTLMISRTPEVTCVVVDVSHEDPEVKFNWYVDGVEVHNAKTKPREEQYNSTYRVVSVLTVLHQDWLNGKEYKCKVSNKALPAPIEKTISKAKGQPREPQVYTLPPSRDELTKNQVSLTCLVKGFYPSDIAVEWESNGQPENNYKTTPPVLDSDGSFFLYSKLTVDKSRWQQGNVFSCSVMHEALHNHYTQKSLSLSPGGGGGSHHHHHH

Binder	Kd [1] [nM]	koff [1] [s⁻¹]	Kd [2] [nM]
B1	26.2	0.00211	
B2	4.57	0.000409	
B3	24.5	0.00166	
B4			1.3
B5			1.24
B6			1.25
B7			1.26
